Biological target: DY-547P1 labelled NDC80-C Bonsai (ΔHec1 1-80)
Experiment: MST

- Kd: 300 nM
B1: MPS1^WT (1xNTE, residues 1-808), recombinant from insect cells (enzyme)
chain: MESEDLSGRELTIDSIMNKVRDIKNKFKNEDLTDELSLNKISADTTDNSGTVNQIMMMANNPEDWLSLLLKLEKNSVPLSDALLNKLIGRYSQAIEALPPDKYGQNESFARIQVRFAELKAIQEPDDARDYFQMARANCKKFAFVHISFAQFELSQGNVKKSKQLLQKAVERGAVPLEMLEIALRNLNLQKKQLLSEEEKKNLSASTVLTAQESFSGSLGHLQNRNNSCDSRGQTTKARFLYGENMPPQDAEIGYRNSLRQTNKTKQSCPFGRVPVNLLNSPDCDVKTDDSVVPCFMKRQTSRSECRDLVVPGSKPSGNDSCELRNLKSVQNSHFKEPLVSDEKSSELIITDSITLKNKTESSLLAKLEETKEYQEPEVPESNQKQWQSKRKSECINQNPAASSNHWQIPELARKVNTEQKHTTFEQPVFSVSKQSPPISTSKWFDPKSICKTPSSNTLDDYMSCFRTPVVKNDFPPACQLSTPYGQPACFQQQQHQILATPLQNLQVLASSSANECISVKGRIYSILKQIGSGGSSKVFQVLNEKKQIYAIKYVNLEEADNQTLDSYRNEIAYLNKLQQHSDKIIRLYDYEITDQYIYMVMECGNIDLNSWLKKKKSIDPWERKSYWKNMLEAVHTIHQHGIVHSDLKPANFLIVDGMLKLIDFGIANQMQPDTTSVVKDSQVGTVNYMPPEAIKDMSSSRENGKSKSKISPKSDVWSLGCILYYMTYGKTPFQQIINQISKLHAIIDPNHEIEFPDIPEKDLQDVLKCCLKRDPKQRISIPELLAHPYVQIQTHPVNQMAKGTTEE

Reference: publication doi:10.1101/438903
